One assay deals with T1, human GLP-1 receptor (human, UniProt P43220 24-463).
T1 construct: whole, on cells; Used as crude membranes of stably transfected HEK293 cells; also called hGLP1R; hGLP-1R
Nature of the assay: SPA, [125I]-GLP-1 displacement, hGLP-1R membranes.

Another assay concerns the target T2, human GIP receptor (human, UniProt P48546 22-466).
T2 construct: whole, on cells; Used as crude membranes of stably transfected CHO cells; also called hGIPR
T2 sequence (looked up): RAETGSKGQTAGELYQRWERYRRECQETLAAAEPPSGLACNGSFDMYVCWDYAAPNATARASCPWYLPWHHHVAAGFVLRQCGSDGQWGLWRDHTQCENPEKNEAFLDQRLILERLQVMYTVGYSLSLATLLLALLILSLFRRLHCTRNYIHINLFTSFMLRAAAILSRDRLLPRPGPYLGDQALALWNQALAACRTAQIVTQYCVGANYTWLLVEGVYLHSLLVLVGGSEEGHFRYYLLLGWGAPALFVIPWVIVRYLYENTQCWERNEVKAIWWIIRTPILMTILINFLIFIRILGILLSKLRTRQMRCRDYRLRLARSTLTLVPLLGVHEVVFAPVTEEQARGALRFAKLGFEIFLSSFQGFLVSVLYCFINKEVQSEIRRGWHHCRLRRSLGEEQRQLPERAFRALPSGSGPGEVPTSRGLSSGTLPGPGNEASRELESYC
Nature of the assay: SPA, [125I]-GIP displacement, hGIPR membranes.

A further assay addresses T3, human glucagon receptor (human, UniProt P47871 26-477).
T3 construct: whole, on cells; Used as crude membranes of stably transfected HEK293 cells; also called hGcgR; hGLcgR
Nature of the assay: SPA, [125I]-Gcg displacement, hGcgR membranes.

Numbered stars: 1 amine (or outer) side, 2 acyl side, 3 side chain; on linkers, the order of the positions; unused ones are H or OH. Square brackets hold non-standard residues; d marks the D form. Side chains are listed from the residue outwards. Ends that are not written are not given here. * marks the point of attachment. C20 diacid = O=C(O)CCCCCCCCCCCCCCCCCCC(=O)*; γGlu = O=C(O)[C@H](CCC(=O)[*:2])N[*:1]; AEEA = NCCOCCOCC(=O)O; Aib = CC(C)(N)C(=O)O

T3 sequence (P47871 26-477): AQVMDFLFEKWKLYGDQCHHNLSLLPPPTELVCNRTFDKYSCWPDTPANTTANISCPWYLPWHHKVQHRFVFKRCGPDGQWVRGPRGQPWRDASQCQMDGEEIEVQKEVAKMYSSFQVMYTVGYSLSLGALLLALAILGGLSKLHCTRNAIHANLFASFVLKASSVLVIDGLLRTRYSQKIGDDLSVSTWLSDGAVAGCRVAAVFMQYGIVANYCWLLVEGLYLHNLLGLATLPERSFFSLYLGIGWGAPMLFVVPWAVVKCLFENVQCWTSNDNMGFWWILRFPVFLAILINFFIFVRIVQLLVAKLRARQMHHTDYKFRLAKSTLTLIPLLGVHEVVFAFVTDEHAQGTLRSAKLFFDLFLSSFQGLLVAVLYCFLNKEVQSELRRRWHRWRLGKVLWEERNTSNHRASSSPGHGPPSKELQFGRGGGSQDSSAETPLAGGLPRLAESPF

B1: Example 49 (peptide)
peptide: Y[Aib]EGTFTSDYSILLDKIAQ[Aib]AFIEYLIEGGPSSGAPPPSK([AEEA-AEEA-γGlu-C20 diacid])-NH2
modifications: N-terminus assumed
SMILES: CC[C@H](C)[C@H](NC(=O)[C@H](CCCCN)NC(=O)[C@H](CC(=O)O)NC(=O)[C@H](CC(C)C)NC(=O)[C@H](CC(C)C)NC(=O)[C@@H](NC(=O)[C@H](CO)NC(=O)[C@H](Cc1ccc(O)cc1)NC(=O)[C@H](CC(=O)O)NC(=O)[C@H](CO)NC(=O)[C@@H](NC(=O)[C@H](Cc1ccccc1)NC(=O)[C@@H](NC(=O)CNC(=O)[C@H](CCC(=O)O)NC(=O)C(C)(C)NC(=O)[C@@H](N)Cc1ccc(O)cc1)[C@@H](C)O)[C@@H](C)O)[C@@H](C)CC)C(=O)N[C@@H](C)C(=O)N[C@@H](CCC(N)=O)C(=O)NC(C)(C)C(=O)N[C@@H](C)C(=O)N[C@@H](Cc1ccccc1)C(=O)N[C@H](C(=O)N[C@@H](CCC(=O)O)C(=O)N[C@@H](Cc1ccc(O)cc1)C(=O)N[C@@H](CC(C)C)C(=O)N[C@H](C(=O)N[C@@H](CCC(=O)O)C(=O)NCC(=O)NCC(=O)N1CCC[C@H]1C(=O)N[C@@H](CO)C(=O)N[C@@H](CO)C(=O)NCC(=O)N[C@@H](C)C(=O)N1CCC[C@H]1C(=O)N1CCC[C@H]1C(=O)N1CCC[C@H]1C(=O)N[C@@H](CO)C(=O)N[C@@H](CCCCNC(=O)COCCOCCNC(=O)COCCOCCNC(=O)CC[C@H](NC(=O)CCCCCCCCCCCCCCCCCCC(=O)O)C(=O)O)C(N)=O)[C@@H](C)CC)[C@@H](C)CC
As to B1, the Ki – broadly, a measure of affinity in units of concentration, obtained from inhibition or displacement – was found to be 12.3 nM with human GLP-1 receptor, 0.087 nM in the assay with human GIP receptor and 236 nM with human glucagon receptor.

B2: Example 50 (peptide)
peptide: Y[Aib]EGTFTSDYSILLDKK([AEEA-AEEA-γGlu-C20 diacid])AQ[Aib]AFIEYLIEGGPSSG-NH2
modifications: N-terminus assumed
SMILES: CC[C@H](C)[C@H](NC(=O)[C@H](CC(C)C)NC(=O)[C@H](Cc1ccc(O)cc1)NC(=O)[C@H](CCC(=O)O)NC(=O)[C@@H](NC(=O)[C@H](Cc1ccccc1)NC(=O)[C@H](C)NC(=O)C(C)(C)NC(=O)[C@H](CCC(N)=O)NC(=O)[C@H](C)NC(=O)[C@H](CCCCNC(=O)COCCOCCNC(=O)COCCOCCNC(=O)CC[C@H](NC(=O)CCCCCCCCCCCCCCCCCCC(=O)O)C(=O)O)NC(=O)[C@H](CCCCN)NC(=O)[C@H](CC(=O)O)NC(=O)[C@H](CC(C)C)NC(=O)[C@H](CC(C)C)NC(=O)[C@@H](NC(=O)[C@H](CO)NC(=O)[C@H](Cc1ccc(O)cc1)NC(=O)[C@H](CC(=O)O)NC(=O)[C@H](CO)NC(=O)[C@@H](NC(=O)[C@H](Cc1ccccc1)NC(=O)[C@@H](NC(=O)CNC(=O)[C@H](CCC(=O)O)NC(=O)C(C)(C)NC(=O)[C@@H](N)Cc1ccc(O)cc1)[C@@H](C)O)[C@@H](C)O)[C@@H](C)CC)[C@@H](C)CC)C(=O)N[C@@H](CCC(=O)O)C(=O)NCC(=O)NCC(=O)N1CCC[C@H]1C(=O)N[C@@H](CO)C(=O)N[C@@H](CO)C(=O)NCC(N)=O
Consider B2, for which the Ki in the assay with human GLP-1 receptor came to 4.71 nM; with human GIP receptor, 0.0568 nM; with human glucagon receptor, 220 nM.

B3: Example 183 (peptide)
peptide: YXEGTXTSDLSIXLDEKAQXEFIXYLIEGGPSSGAPPPS
modifications: not printed (the compound name of this Example is missing from the table of Examples 6-287)
B3: the Ki was determined as 4.11 nM with human GLP-1 receptor, 0.0869 nM in the assay with human GIP receptor and 304 nM with human glucagon receptor.

B4: Example 2 (peptide)
peptide: YXEGTXTSDYSIXLDXKAQXEFIXYLIEGGPSSGAPPPS
modifications: Aib2; αMeF(2F)6; αMeL13; Orn16; K17((2-[2-(2-Amino-ethoxy)-ethoxy]-acetyl)2-(γ-Glu)-CO-(CH2)16-CO2H); Aib20; D-Glu24; C-terminal NH2
For the molecule B4, the Ki was 2.35 nM with human GLP-1 receptor, 0.06 nM with human GIP receptor and 361 nM with human glucagon receptor.

B5: Example 191 (peptide)
peptide: YXEGTXTSDVSIXLDEKAQXEFIXYLIEGGPSSGAPPPS
modifications: Aib2; αMeF(2F)6; αMeL13; K17((2-[2-(2-Amino-ethoxy)-ethoxy]-acetyl)2-(γ-Glu)-CO-(CH2)18-CO2H); Aib20; D-Glu24; C-terminal NH2
As for B5, the figures for the Ki with human GLP-1 receptor, in the assay with human GIP receptor and in the assay with human glucagon receptor were 4.52 nM, 0.144 nM and 348 nM, respectively.

B6: Example 211 (peptide)
peptide: YXEGTXTSDYSIXLDKKAQXEFIXYLIEGGPSSGAPPPS
modifications: Aib2; αMeF(2F)6; αMeL13; K17((2-[2-(2-Amino-ethoxy)-ethoxy]-acetyl)-(γ-Glu)-(2-[2-(2-Amino-ethoxy)-ethoxy]-acetyl)-CO-(CH2)18-CO2H); Aib20; D-Glu24; C-terminal NH2
For the molecule B6, the figures for the Ki with human GLP-1 receptor, with human GIP receptor and in the assay with human glucagon receptor were 2.64 nM, 0.0243 nM and 131 nM, respectively.

The values are drawn from patent US20200024322A1 (Eli Lilly, published 2020).
